Literature values as cited in paper PMC4380812.

Target: HdeA (Escherichia coli) (UniProt P0AES9)

Sequence of HdeA (P0AES9 22-110): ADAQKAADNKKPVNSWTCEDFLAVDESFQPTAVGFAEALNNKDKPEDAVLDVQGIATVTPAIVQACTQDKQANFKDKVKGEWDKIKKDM

In the case of HdeA (from UniProt P0AES9), the Kd is given as 1000 nM.
